# Key:
# [1] = molecular target: the molecule itself; experiment: size exclusion chromatography (Superdex 200 10/300 GL), self-association
# Method: FIG. 5. Multimeric complexes increase AP regulatory activity of MFHR1 in human serum. A) Size exclusion chromatography (Superdex 200 10/300 GL) of bovine serum albumin (BSA), serum plasma derived FH (hFH) and MFHR1. The three compositions of BSA mixture presented different retention volumes based on molecular mass, which was I. BSA trimer (198 kDa, 10.35 ml), II. BSA dimer (132 kDa, 11.45 ml) and III. BSA monomer (66 kDa, 13.4 ml). […] Theoretical trimer (II. 10.7), dimer (III. 11.4) intermediates (IV.-V.) or monomeric (IV. 13.5) MFHR1 are indicated in the elution profile. B) Analysis of MFHR1 after elution from SEC column as performed in A. 20 μl protein from fractions was loaded on a 10% SDS-PAGE and silver stained C) Afterwards, single or pooled MFHR1 SEC fractions were added into human serum at 10 nM and AP activation was proceeded by incubation in LPS coated wells using AP specific buffer conditions. Regulatory efficiency of MFHR1 fractions was analyzed by measuring C5b-9 complex formation. AP activity of untreated control serum was set to 100%.
# [2] = molecular target: C5 (complement component C5) (UniProt P01031 19-673; P01031 678-1676); experiment: ELISA, hFH (133 nM) immobilised, C5 in solution, detected with monoclonal C5 antibodies
# Method: FIG. 3. MFHR1 binds C5 and regulates terminal pathway activation by inhibition of the C5 convertase/C5 cleavage and MAC formation. A) MFHR1 binds to C5 as determined by ELISA. Equimolar amounts of MFHR1, full length FHR1, hFH or BSA (133 nM) were immobilized to Nunc plates and incubated with increasing concentrations (10, 20, 40 μg/ml) of C5. Binding was detected using monoclonal C5 antibodies and HRP-labelled secondary antibodies. Data are mean±SD from n=3 experiments B) MFHR1 inhibits AP activation by blockade of C5 cleavage. Cobra venom factor (CVF) C5 convertase was generated on sheep erythrocytes (sE) after adding Factor B (FB) and Factor D (FD). Hemolysis was induced after adding C5, C6, C7, C8 and C9 components and detected at 414 nm. […] C) MFHR1 inhibits formation of the membrane attack complex (MAC) on sE. MAC formation on sE was induced by incubation with C5b6, C7, C8 and C9 components and detected by hemolysis of cells. Preincubation of C5b6 with MFHR1, FHR1 or Eculizumab inhibited hemolysis at significant levels compared to hFH or BSA. […] In B and C control without regulator (w/o) was set as 100%. All data represent mean values ±SD of 3 separate experiments. ***P<0.001 vs. w/o control, one-way ANOVA with Bonferroni multiple comparison test.
# C5 (complement component C5), sequence (P01031 19-673 limits assumed, chain 1 of 2): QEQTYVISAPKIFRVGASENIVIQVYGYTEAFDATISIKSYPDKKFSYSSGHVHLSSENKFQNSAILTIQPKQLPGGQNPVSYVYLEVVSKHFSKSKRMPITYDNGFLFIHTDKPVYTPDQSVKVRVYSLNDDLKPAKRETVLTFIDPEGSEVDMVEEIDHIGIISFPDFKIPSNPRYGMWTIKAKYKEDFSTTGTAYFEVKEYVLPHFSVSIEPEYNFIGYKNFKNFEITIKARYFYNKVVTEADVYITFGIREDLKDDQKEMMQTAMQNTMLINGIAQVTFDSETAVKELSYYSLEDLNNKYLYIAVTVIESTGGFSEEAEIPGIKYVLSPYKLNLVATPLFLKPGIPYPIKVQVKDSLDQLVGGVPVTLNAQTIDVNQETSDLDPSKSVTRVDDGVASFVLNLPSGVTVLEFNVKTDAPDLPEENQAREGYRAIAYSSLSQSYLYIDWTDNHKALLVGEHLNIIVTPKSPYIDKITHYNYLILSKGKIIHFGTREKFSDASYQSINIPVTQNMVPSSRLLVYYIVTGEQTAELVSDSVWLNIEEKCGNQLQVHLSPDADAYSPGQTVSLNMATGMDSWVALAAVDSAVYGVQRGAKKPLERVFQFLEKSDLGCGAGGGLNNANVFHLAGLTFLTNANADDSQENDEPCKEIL
# C5 (complement component C5), sequence (P01031 678-1676 limits assumed, chain 2 of 2): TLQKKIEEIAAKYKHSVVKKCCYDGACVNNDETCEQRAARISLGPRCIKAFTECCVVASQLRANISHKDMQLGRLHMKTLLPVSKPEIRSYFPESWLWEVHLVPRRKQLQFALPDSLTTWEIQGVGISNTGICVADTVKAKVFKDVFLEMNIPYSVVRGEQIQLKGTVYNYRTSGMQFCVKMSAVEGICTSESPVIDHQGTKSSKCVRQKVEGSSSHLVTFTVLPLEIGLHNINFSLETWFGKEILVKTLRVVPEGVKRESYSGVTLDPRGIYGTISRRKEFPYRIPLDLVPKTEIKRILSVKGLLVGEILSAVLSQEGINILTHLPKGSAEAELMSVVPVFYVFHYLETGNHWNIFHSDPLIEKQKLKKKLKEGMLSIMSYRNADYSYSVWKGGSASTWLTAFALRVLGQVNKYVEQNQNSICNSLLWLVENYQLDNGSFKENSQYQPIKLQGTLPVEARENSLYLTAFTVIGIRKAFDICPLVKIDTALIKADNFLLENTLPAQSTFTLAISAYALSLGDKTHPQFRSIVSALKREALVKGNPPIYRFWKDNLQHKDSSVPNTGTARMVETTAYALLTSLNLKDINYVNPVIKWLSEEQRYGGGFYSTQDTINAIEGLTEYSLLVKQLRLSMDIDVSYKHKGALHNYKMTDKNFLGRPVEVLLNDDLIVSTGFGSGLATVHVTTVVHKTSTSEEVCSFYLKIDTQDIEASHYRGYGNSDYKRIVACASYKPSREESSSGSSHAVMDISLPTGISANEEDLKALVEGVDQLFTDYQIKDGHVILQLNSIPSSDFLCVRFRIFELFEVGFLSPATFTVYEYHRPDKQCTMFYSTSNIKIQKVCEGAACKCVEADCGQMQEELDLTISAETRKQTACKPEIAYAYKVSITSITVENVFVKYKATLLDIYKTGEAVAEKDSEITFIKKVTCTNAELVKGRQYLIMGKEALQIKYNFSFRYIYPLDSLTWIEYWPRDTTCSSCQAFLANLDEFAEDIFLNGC
Binder,binding result [1],binding result [2]
"MFHR1 (His-tag - FHR1(SCR1-2)-FH(SCR1-4)-FH(SCR19-20)) (other, Recombinant fusion protein expressed in SF9 insect cells (baculovirus); By size exclusion chromatography it runs mostly as a multimer; also called MFHR1 with His tag) ADLGSHHHHHHHHHHDYDRSFCDFPKINHGILYDEEKYKPFSQVPTGEVFYYSCEYNFVSPSKSFWTRITCTEEGWSPTPKCLRLCFFPFVENGHSESSGQTHLEGDTVQIICNTGYRLQNNENNISCVERGWSTPPKCRSEDCNELPPRRNTEILTGSWSDQTYPEGTQAIYKCRPGYRSLGNVIMVCRKGEWVALNPLRKCQKRPCGHPGDTPFGTFTLTGGNVFEYGVKAVYTCNEGYQLLGEINYRECDTDGWTNDIPICEVVKCLPVTAPENGKIVSSAMEPDREYHFGQAVRFVCNSGYKIEGDEEMHCSDDGFWSKEKPKCVEISCKSPDVINGSPISQKIIYKENERFQYKCNMGYEYSERGDAVCTESGWRPLPSCEDSTGKCGPPPPIDNGDITSFPLSVYAPASSVEYQCQNLYQLEGNKRITCRNGQWSEPPKCLHPCVISREIMENYNIALRWTAKQKLYSRTGESVEFVCKRGYRLSSRSHTLRTTCWDGKLEYPTCAKR",binds,–
"human plasma derived Factor H (hFH) (other, Purified from human plasma, so the mature protein; also called FHplasma; plasma purified FH) EDCNELPPRRNTEILTGSWSDQTYPEGTQAIYKCRPGYRSLGNVIMVCRKGEWVALNPLRKCQKRPCGHPGDTPFGTFTLTGGNVFEYGVKAVYTCNEGYQLLGEINYRECDTDGWTNDIPICEVVKCLPVTAPENGKIVSSAMEPDREYHFGQAVRFVCNSGYKIEGDEEMHCSDDGFWSKEKPKCVEISCKSPDVINGSPISQKIIYKENERFQYKCNMGYEYSERGDAVCTESGWRPLPSCEEKSCDNPYIPNGDYSPLRIKHRTGDEITYQCRNGFYPATRGNTAKCTSTGWIPAPRCTLKPCDYPDIKHGGLYHENMRRPYFPVAVGKYYSYYCDEHFETPSGSYWDHIHCTQDGWSPAVPCLRKCYFPYLENGYNQNYGRKFVQGKSIDVACHPGYALPKAQTTVTCMENGWSPTPRCIRVKTCSKSSIDIENGFISESQYTYALKEKAKYQCKLGYVTADGETSGSITCGKDGWSAQPTCIKSCDIPVFMNARTKNDFTWFKLNDTLDYECHDGYESNTGSTTGSIVCGYNGWSDLPICYERECELPKIDVHLVPDRKKDQYKVGEVLKFSCKPGFTIVGPNSVQCYHFGLSPDLPICKEQVQSCGPPPELLNGNVKEKTKEEYGHSEVVEYYCNPRFLMKGPNKIQCVDGEWTTLPVCIVEESTCGDIPELEHGWAQLSSPPYYYGDSVEFNCSESFTMIGHRSITCIHGVWTQLPQCVAIDKLKKCKSSNLIILEEHLKNKKEFDHNSNIRYRCRGKEGWIHTVCINGRWDPEVNCSMAQIQLCPPPPQIPNSHNMTTTLNYRDGEKVSVLCQENYLIQEGEEITCKDGRWQSIPLCVEKIPCSQPPQIEHGTINSSRSSQESYAHGTKLSYTCEGGFRISEENETTCYMGKWSSPPQCEGLPCKSPPEISHGVVAHMSDSYQYGEEVTYKCFEGFGIDGPAIAKCLGEKWSHPPSCIKTDCLSLPSFENAIPMGEKKDVYKAGEQVTYTCATYYKMDGASNVTCINSRWTGRPTCRDTSCVNPPTVQNAYIVSRQMSKYPSGERVRYQCRSPYEMFGDEEVMCLNGNWTEPPQCKDSTGKCGPPPPIDNGDITSFPLSVYAPASSVEYQCQNLYQLEGNKRITCRNGQWSEPPKCLHPCVISREIMENYNIALRWTAKQKLYSRTGESVEFVCKRGYRLSSRSHTLRTTCWDGKLEYPTCAKR",–,"no binding (tested: 10, 20, 40 µg/ml of C5)"
